Laboratory results reported in PMC13376213 (Nature Communications, 2026).
Ends that are not written are not given here.

Molecular target: USP11 tandem DUSP-UBL domain, tag cleaved (for FP) (human)
Assay: fluorescence polarisation; saturation or displacement not stated for this experiment; 50 mM phosphate buffer pH 7.4, room temperature
Details: both partners purified

USP11 tandem DUSP-UBL domain, tag cleaved (for FP) (human), sequence (chain, as listed by the source): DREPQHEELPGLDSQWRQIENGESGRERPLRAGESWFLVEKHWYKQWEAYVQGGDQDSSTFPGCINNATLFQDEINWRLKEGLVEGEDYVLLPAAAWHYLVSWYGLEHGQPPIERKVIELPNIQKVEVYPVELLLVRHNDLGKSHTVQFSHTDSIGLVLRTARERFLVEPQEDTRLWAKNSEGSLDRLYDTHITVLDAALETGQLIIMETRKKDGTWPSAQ

Kd: 200 to 300 µM
B1: ORAI1 peptide used for FP (peptide)
chain: SAVTYPDWIGQSYSEV-NH2
modifications: also: N-terminus FITC-labeled or acetylated, not given here which
